Measurements as given in article PMC7322680 (Biochemistry and Biophysics Reports, 2020).
Where “and” joins values, the source holds several entries; their conditions need not be identical. Equal entries are not always repeated.

How the values were obtained:
[1] = target: the molecule itself; assay: SEC-MALS
[2] = target: the molecule itself; assay: SEC

B1: human podocin domain (residues 126-350) (domain or fragment, UniProt Q9NP85 126-350, looked up)
chain: KVVQEYERVIIFRLGHLLPGRAKGPGLFFFLPCLDTYHKVDLRLQTLEIPFHEIVTKDMFIMEIDAICYYRMENASLLLSSLAHVSKAVQFLVQTTMKRLLAHRSLTEILLERKSIAQDAKVALDSVTCIWGIKVERIEIKDVRLPAGLQHSLAVEAEAQRQAKVRMIAAEAEKAASESLRMAAEILSGTPAAVQLRYLHTLQSLSTEKPSTVVLPLPFDLLNCL
stoichiometry N [1]: ~16 and 25 and 13
stoichiometry N [2]: 16
